# Data taken from PMC3268518 (Molecular Cell, 2011).
# T1: co-purified GST-eIF4G1/eIF4E complex (yeast, UniProt P39935 1-952; P07260 1-213)
# T1 sequence (looked up) 1: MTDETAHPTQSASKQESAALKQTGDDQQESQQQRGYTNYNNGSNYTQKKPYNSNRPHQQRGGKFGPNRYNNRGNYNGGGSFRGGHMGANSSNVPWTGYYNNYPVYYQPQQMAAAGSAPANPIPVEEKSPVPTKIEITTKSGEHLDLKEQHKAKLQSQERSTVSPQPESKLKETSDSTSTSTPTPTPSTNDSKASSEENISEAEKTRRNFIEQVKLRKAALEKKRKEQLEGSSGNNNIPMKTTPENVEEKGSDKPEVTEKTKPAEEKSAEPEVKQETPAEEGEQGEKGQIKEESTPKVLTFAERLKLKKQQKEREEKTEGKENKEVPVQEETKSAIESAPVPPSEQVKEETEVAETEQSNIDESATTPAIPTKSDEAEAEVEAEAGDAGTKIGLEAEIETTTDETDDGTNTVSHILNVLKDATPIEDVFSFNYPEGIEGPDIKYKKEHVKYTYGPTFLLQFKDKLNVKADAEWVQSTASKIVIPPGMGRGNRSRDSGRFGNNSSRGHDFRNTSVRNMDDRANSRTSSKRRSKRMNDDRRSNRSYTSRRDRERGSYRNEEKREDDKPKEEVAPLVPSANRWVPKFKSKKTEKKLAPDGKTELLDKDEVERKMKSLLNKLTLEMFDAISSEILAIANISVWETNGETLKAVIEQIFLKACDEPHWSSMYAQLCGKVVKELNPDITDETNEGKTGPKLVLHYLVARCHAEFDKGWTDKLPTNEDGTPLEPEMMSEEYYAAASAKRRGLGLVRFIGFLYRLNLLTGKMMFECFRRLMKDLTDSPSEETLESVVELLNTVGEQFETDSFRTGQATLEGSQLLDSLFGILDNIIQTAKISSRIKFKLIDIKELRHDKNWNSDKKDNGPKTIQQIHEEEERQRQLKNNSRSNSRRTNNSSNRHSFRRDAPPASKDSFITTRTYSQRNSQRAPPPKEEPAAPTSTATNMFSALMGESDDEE
# T1 sequence (looked up) 2: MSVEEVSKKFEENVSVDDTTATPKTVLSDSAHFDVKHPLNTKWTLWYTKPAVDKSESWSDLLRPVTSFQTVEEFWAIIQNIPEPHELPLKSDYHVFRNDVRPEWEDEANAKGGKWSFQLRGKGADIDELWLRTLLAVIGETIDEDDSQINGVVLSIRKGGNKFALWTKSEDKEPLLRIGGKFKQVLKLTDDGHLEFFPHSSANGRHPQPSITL
# What was measured:
# [1] = target: recombinant wild type Ded1 (yeast, UniProt P06634 1-604); experiment: pull-down
# [2] = target: T1, co-purified GST-eIF4G1/eIF4E complex; experiment: pull-down
binding result [1],binding result [2],Binder
binds,–,"GST-eIF4G1 fragment eIF4G 883-952 (domain or fragment, yeast, UniProt P39935 883-952, looked up) SNSRRTNNSSNRHSFRRDAPPASKDSFITTRTYSQRNSQRAPPPKEEPAAPTSTATNMFSALMGESDDEE"
–,binds,"rded1Δ21-27 (enzyme, yeast, UniProt P06634 1-604, looked up) MAELSEQVQNLSINDNNENGGKPRSARNNSSNYNNNNGGYNGGRGGGSFFSNNRRGGYGNGGFFGGNNGGSRSNGRSGGRWIDGKHVPAPRNEKAEIAIFGVPEDPNFQSSGINFDNYDDIPVDASGKDVPEPITEFTSPPLDGLLLENIKLARFTKPTPVQKYSVPIVANGRDLMACAQTGSGKTGGFLFPVLSESFKTGPSPQPESQGSFYQRKAYPTAVIMAPTRELATQIFDEAKKFTYRSWVKACVVYGGSPIGNQLREIERGCDLLVATPGRLNDLLERGKISLANVKYLVLDEADRMLDMGFEPQIRHIVEDCDMTPVGERQTLMFSATFPADIQHLARDFLSDYIFLSVGRVGSTSENITQKVLYVENQDKKSALLDLLSASTDGLTLIFVETKRMADQLTDFLIMQNFRATAIHGDRTQSERERALAAFRSGAATLLVATAVAARGLDIPNVTHVINYDLPSDVDDYVHRIGRTGRAGNTGLATAFFNSENSNIVKGLHEILTEANQEVPSFLKDAMMSAPGSRSNSRRGGFGRNNNRDYRKAGGASAGGWGSSRSRDNSFRGGSGWGSDSKSSGWGNSGGSNNSSWW"
